Numbering of substitutions follows the chain as printed.
B1: PRT-416 (protein)
chain: MTITSVWTKGVTPPTPEDFRYNNEDVLHAPYVANQGWYDITKTFDGKDNLLCGAATAGNMLHWWFDQNKEEIERYLKKHPEKQKIIFNNQELFDVKAAIDTKDSQTNSKLFNYFRDKAFPNLSARQLGVMPDLVLDMFINGYYLNLPKTQSTDVNRPYQDKDKRGGIFDAVFTRGDQTTLLTARHDLKNKGLNEISDLIKQELTEGKALALSHTYANVRINHVINLWGADFDAEGNLIAIYVTDSDANASIGMKKYFVGVNANGKVAISAKKIEGDNIGAQVLGLFTLSTGQDIWQKLS
B2: PRT-424 (protein)
chain: B1 chain with P147G, T290L
B3: PRT-442 (protein)
chain: MSQTEDSESLQRLRDIEDFQAEKKKQNVVYTKWLDGVDVKDHDFRKIVDGNIAYYATPLLNGRGFYDINKDFNRDNDKCAAAVAANMFHYWLDRNRDNVDRFLRQNPEKHGIIELPDGQLKLSDFLNTYESDDGYRDKSKLFDFISNNFNGPVWTDKLLDNYINGYAYNYKYGRTIEDPTKNTSKINFFKEVFNEKILTNNHSIRNQNEFSVLLSEALYTGKAIGLSYGPAGLRHSLGHIISVWGADLDADGNVVAIYVTDSDDKKLTIGDERVGLKRYKISTDDEGRLRLTAYEETHNTGGQIRGLWTLDTGKQAWADYFDKTEQTGTDQAEQ
B4: PRT-433 (protein)
chain: B3 chain with N76S, S215I
B5: PRT-400 (protein)
chain: MVTSVWTKGVTPPADFTQGEDVFHAPYDANQGWYDITKTFNGKDDLLCGAATAGNMLHWWFDQNKEYIEAYLKKHPEKQKIMFGDQELLDVRKAINTKGSQKNSELFNYFRDKAFPNLSARRLGVMPDLVLDMFINGYYLNVTKTQTTDVNRTYQEKDKRGGIFDAVFTRGDQSKLLTSRHDFKEKGLKEISDLIKQELTEGKALGLSHTYANVRINHVINLWGADFDSDGNLKAIYVTDSDSNASIGMKKYFVGVNSAGKVAISAKEIKEDNIGAQVLGLFTLSTGQDIWNQTN
B6: PRT-408 (protein)
chain: B5 chain with D28V, M126F

These proteins were tested against pooled human IgG (human IgG1, 2, 3 and 4).

Protein | Enzyme Activity Endpoint Assay: Fab′2 [ng/µL] | Enzyme Activity Endpoint Assay: Fc [ng/µL] | Enzyme Activity Endpoint Assay: IgG [ng/µL] | Enzyme Activity Endpoint Assay: scIgG [ng/µL] | Enzyme Activity Endpoint Assay (purified): Fab′2 [ng/µL] | Enzyme Activity Endpoint Assay (purified): Fc [ng/µL] | Enzyme Activity Endpoint Assay (purified): IgG [ng/µL] | Enzyme Activity Endpoint Assay (purified): scIgG [ng/µL]
B1 | 125 | 258 | 96 | 453 |  |  |  | 
B2 | 618 | 348 | 88 | 0 |  |  |  | 
B3 | 18 | 169 | 680 | 381 |  |  |  | 
B4 | 575 | 489 | 0 | 224 | 575 | 489 | 0 | 224
B5 | 556 | 333 | 176 | 0 | 556 | 333 | 176 | 0
B6 | 564 | 334 | 179 | 0 |  |  |  | 

— patent publication US20250027068
